This data set concerns the molecule itself. Kind of data set: native gel or EMSA; Coomassie-stained 16% native gel; dimeric S100B sample. Background: In EMSA bound probe runs differently from free probe, usually more slowly.

B1: S100B protein (natural protein, human)
chain: SELEKAMVALIDVFHQYSGREGDKHKLKKSELKELINNELSHFLEEIKEQEVVDKVMETLDNDGDGECDFQEFMAFVAMVTTACHEFFEHE
notes: S100B, Homo sapiens, UniProt P04271; Gene carried in the pETDuet-1 vector; The protein is a homodimer as purified; the monomer was obtained by extensive dialysis against deionized water; also called dimeric S100B; monomeric S100B; source: E. coli BL21-CodonPlus (DE3)-RIL, purified (ammonium sulfate, HiTrap Q XL anion exchange)
In the case of B1, the binding result is listed as “binds”.
